Data as given in paper PMC4186968, “Molecular Basis for Coordinating Transcription Termination with Noncoding RNA Degradation” (Molecular Cell, 2014).
Where a SMILES comes first, the peptide text is derived from it. Where no end group is shown, it is not given here.

B4: Nrd1p CID (residues 1-153) (domain or fragment)
chain: MQQDDDFQNFVATLESFKDLKSGISGSRIKKLTTYALDHIDIESKIISLIIDYSRLCPDSHKLGSLYIIDSIGRAYLDETRSNSNSSSNKPGTCAHAINTLGEVIQELLSDAIAKSNQDHKEKIRMLLDIWDRSGLFQKSYLNAIRSKCFAMD

What was measured:
[1] = biological target: T1, Nrd1p CID (Saccharomyces cerevisiae, UniProt P53617); experiment: Equilibrium binding of FAM-labelled peptides to Nrd1p CID by fluorescence anisotropy (FA); set-up: species or system S. cerevisiae
T1 construct: the CID (residues 1–153) of Nrd1p; His6 (C); made in house
T1 sequence (P53617 1-153): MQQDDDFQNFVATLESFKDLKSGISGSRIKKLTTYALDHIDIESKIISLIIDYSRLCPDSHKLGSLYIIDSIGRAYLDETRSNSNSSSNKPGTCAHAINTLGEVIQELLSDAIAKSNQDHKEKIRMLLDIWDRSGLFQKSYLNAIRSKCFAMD

[2] = biological target: Nrd1p CID (residues 1-153) (UniProt P53617); experiment: fluorescence anisotropy (FA) equilibrium binding
[3] = biological target: T2, FAM-labeled Trf4p NIM peptide; experiment: fluorescence anisotropy (FA) equilibrium binding; settings: chain shown with the change
T2 chain: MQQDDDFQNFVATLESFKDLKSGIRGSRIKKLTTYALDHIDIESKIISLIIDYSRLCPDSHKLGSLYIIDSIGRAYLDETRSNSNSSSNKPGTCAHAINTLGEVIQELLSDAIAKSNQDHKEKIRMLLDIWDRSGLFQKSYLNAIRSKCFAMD

[4] = biological target: B4; experiment: FP
[5] = biological target: T3, Nrd1p CID (residues 1-153), P53617; experiment: fluorescence anisotropy (FA) equilibrium binding; settings: chain shown with the change
T3 chain: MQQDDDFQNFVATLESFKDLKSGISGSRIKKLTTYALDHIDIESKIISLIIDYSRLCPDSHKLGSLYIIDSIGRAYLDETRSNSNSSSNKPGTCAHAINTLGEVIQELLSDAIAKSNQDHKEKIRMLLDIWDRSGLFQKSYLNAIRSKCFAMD

[6] = biological target: T4, FAM-labeled Trf4p NIM peptide; experiment: fluorescence anisotropy (FA) equilibrium binding; settings: chain shown with the change
T4 chain: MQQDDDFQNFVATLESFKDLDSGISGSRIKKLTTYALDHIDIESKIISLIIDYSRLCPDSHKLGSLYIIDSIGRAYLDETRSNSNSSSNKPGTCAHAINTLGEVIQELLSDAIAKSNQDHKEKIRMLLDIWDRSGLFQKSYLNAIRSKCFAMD

[7] = biological target: T5, Nrd1p CID (residues 1-153) (S. cerevisiae, UniProt P53617 1-153); experiment: NMR solution structure; reconstituted complex of 15N,13C-labeled Nrd1p CID and unlabeled NIM peptide; 50 mM sodium phosphate pH 8.0, 100 mM NaCl, 20°C; settings: both partners purified
T5 construct: also called Nrd1 CID
T5 sequence (looked up): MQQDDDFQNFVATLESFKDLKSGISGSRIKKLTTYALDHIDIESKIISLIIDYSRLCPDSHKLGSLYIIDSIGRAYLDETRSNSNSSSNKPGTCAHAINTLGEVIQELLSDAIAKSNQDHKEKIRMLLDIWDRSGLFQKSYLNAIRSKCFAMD

[8] = biological target: T6, FAM-labeled Trf4p NIM peptide; experiment: fluorescence anisotropy (FA) equilibrium binding; settings: chain shown with the change
T6 chain: DDDEDGYNPYTL

[9] = biological target: FAM-labeled Ser5P CTD peptide (S. cerevisiae); experiment: fluorescence polarisation; fluorescence anisotropy; fluorescently labeled peptide titrated with Nrd1p CID; equilibrium binding in solution
[10] = biological target: FAM-labeled Trf4p NIM peptide (S. cerevisiae); experiment: as above
[11] = biological target: T7, NIM N580A (Saccharomyces cerevisiae, not fully specified (N-terminus); also: FAM label (position not given here)); experiment: FP
T7 chain: DDDEDGYAPYTL

[12] = biological target: T8, NIM D577R (Saccharomyces cerevisiae, not fully specified (N-terminus); also: FAM label (position not given here)); experiment: FP
T8 chain: DDDERGYNPYTL

[13] = biological target: FAM-labeled Ser5P CTD peptide (S. cerevisiae); experiment: fluorescence polarisation; fluorescence anisotropy competition; preformed complex of 10 nM FAM-labeled Ser5P CTD and Nrd1p CID (120 μM) titrated with unlabeled Trf4p NIM peptide; KD calculated using 1.08 μM for CID-NIM

Molecule: CC(C)C[C@H](NC(=O)[C@@H](NC(=O)[C@H](Cc1ccc(O)cc1)NC(=O)[C@@H]1CCCN1C(=O)[C@H](CC(N)=O)NC(=O)[C@H](Cc1ccc(O)cc1)NC(=O)CNC(=O)[C@H](CCCNC(=N)N)NC(=O)[C@H](CCC(=O)O)NC(=O)[C@H](CC(=O)O)NC(=O)[C@H](CC(=O)O)NC(=O)[C@H](CC(=O)O)NC(=O)c1ccc2c(c1)C(=O)OC21c2ccc(O)cc2Oc2cc(O)ccc21)[C@@H](C)O)C(=O)O [D577R] (HELM PEPTIDE1{[O=C1OC2(c3ccc(O)cc3Oc3cc(O)ccc32)c2ccc(C(=O)[*:2])cc21].D.D.D.E.R.G.Y.N.P.Y.T.L}$$$$V2.0)
- Kd [1]: 24.2 ± 0.6 µM

Molecule: FAM-labeled Trf4p NIM peptide Y579A
- Kd [2]: 283 µM

Molecule: CC(C)C[C@H](NC(=O)[C@@H](NC(=O)[C@H](Cc1ccc(O)cc1)NC(=O)[C@@H]1CCCN1C(=O)[C@H](CC(N)=O)NC(=O)[C@H](Cc1ccc(O)cc1)NC(=O)CNC(=O)[C@H](CC(=O)O)NC(=O)[C@H](CCC(=O)O)NC(=O)[C@H](CC(=O)O)NC(=O)[C@H](CC(=O)O)NC(=O)[C@H](CC(=O)O)NC(=O)c1ccc2c(c1)C(=O)OC21c2ccc(O)cc2Oc2cc(O)ccc21)[C@@H](C)O)C(=O)O [Trf4p NIM] (HELM PEPTIDE1{[O=C1OC2(c3ccc(O)cc3Oc3cc(O)ccc32)c2ccc(C(=O)[*:2])cc21].D.D.D.E.D.G.Y.N.P.Y.T.L}$$$$V2.0; C-terminus assumed)
- Kd [1]: 1.09 ± 0.01 µM

Molecule: CC(C)C[C@H](NC(=O)[C@@H](NC(=O)[C@H](Cc1ccc(O)cc1)NC(=O)[C@@H]1CCCN1C(=O)[C@H](CC(N)=O)NC(=O)[C@H](Cc1ccc(O)cc1)NC(=O)CNC(=O)[C@H](CC(=O)O)NC(=O)[C@H](CCC(=O)O)NC(=O)[C@H](CCCNC(=N)N)NC(=O)[C@H](CC(=O)O)NC(=O)[C@H](CC(=O)O)NC(=O)c1ccc2c(c1)C(=O)OC21c2ccc(O)cc2Oc2cc(O)ccc21)[C@@H](C)O)C(=O)O [D575R] (HELM PEPTIDE1{[O=C1OC2(c3ccc(O)cc3Oc3cc(O)ccc32)c2ccc(C(=O)[*:2])cc21].D.D.R.E.D.G.Y.N.P.Y.T.L}$$$$V2.0)
- Kd [1]: 7.7 ± 0.2 µM

Molecule: CC(C)C[C@H](NC(=O)[C@@H](NC(=O)[C@H](Cc1ccc(O)cc1)NC(=O)[C@@H]1CCCN1C(=O)[C@H](C)NC(=O)[C@H](Cc1ccc(O)cc1)NC(=O)CNC(=O)[C@H](CC(=O)O)NC(=O)[C@H](CCC(=O)O)NC(=O)[C@H](CC(=O)O)NC(=O)[C@H](CC(=O)O)NC(=O)[C@H](CC(=O)O)NC(=O)c1ccc2c(c1)C(=O)OC21c2ccc(O)cc2Oc2cc(O)ccc21)[C@@H](C)O)C(=O)O [N580A] (HELM PEPTIDE1{[O=C1OC2(c3ccc(O)cc3Oc3cc(O)ccc32)c2ccc(C(=O)[*:2])cc21].D.D.D.E.D.G.Y.A.P.Y.T.L}$$$$V2.0)
- Kd [1]: 4.3 ± 0.1 µM

Molecule: DDDEDGYNPYTL [Nrd1p CID (residues 1-153), P53617 S25R]
- Kd [3]: 146 µM

Molecule: DDDRDGYNPYTL [Trf4p NIM peptide with Glu576 changed to arginine]
- Kd [4]: 4.6 µM

Molecule: DDDRDGYNPYTL [FAM-labeled Trf4p NIM peptide E576R]
- Kd [5]: 4.8 µM

Molecule: DDDEDGANPYTL (not fully specified (N-terminus); also: FAM label (position not given here)) [Trf4p NIM peptide with alanine at Tyr579]
- Kd [4]: 263 µM

Molecule: DDDADGYNPYTL [FAM-labeled Trf4p NIM peptide E576A]
- Kd [5]: 3.2 µM

Molecule: DDDEDGYNPYTL [Nrd1p CID (residues 1-153), P53617 K21D]
- Kd [6]: 35.4 µM

B1: 12 aa NIM peptide of Trf4p (peptide)
peptide: DDDEDGYNPYTL
notes: printed in three-letter code; also called Trf4p NIM; unlabeled NIM
- binding result [7]: binds

B2: Nrd1p CID (residues 1-153), P53617 L20D (protein)
chain: MQQDDDFQNFVATLESFKDDKSGISGSRIKKLTTYALDHIDIESKIISLIIDYSRLCPDSHKLGSLYIIDSIGRAYLDETRSNSNSSSNKPGTCAHAINTLGEVIQELLSDAIAKSNQDHKEKIRMLLDIWDRSGLFQKSYLNAIRSKCFAMD
- Kd [8]: 44.9 µM

B3: Nrd1p CID (residues 1-153), P53617 R28D (protein)
chain: MQQDDDFQNFVATLESFKDLKSGISGSDIKKLTTYALDHIDIESKIISLIIDYSRLCPDSHKLGSLYIIDSIGRAYLDETRSNSNSSSNKPGTCAHAINTLGEVIQELLSDAIAKSNQDHKEKIRMLLDIWDRSGLFQKSYLNAIRSKCFAMD
- Kd [8]: 96.9 µM

Molecule: B4
- Kd [9]: 130 µM
- Kd [10]: 1.08 µM
- Kd [11]: 4.3 µM
- Kd [12]: 24.2 µM
- Kd [13]: 120 µM

B5: Nrd1p CID (residues 1-153), P53617 D70A (protein)
chain: MQQDDDFQNFVATLESFKDLKSGISGSRIKKLTTYALDHIDIESKIISLIIDYSRLCPDSHKLGSLYIIASIGRAYLDETRSNSNSSSNKPGTCAHAINTLGEVIQELLSDAIAKSNQDHKEKIRMLLDIWDRSGLFQKSYLNAIRSKCFAMD
- Kd [8]: 39.8 µM

B6: Nrd1p CID (residues 1-153), P53617 I130K (protein)
chain: MQQDDDFQNFVATLESFKDLKSGISGSRIKKLTTYALDHIDIESKIISLIIDYSRLCPDSHKLGSLYIIDSIGRAYLDETRSNSNSSSNKPGTCAHAINTLGEVIQELLSDAIAKSNQDHKEKIRMLLDKWDRSGLFQKSYLNAIRSKCFAMD
- Kd [8]: 20.7 µM

B7: Nrd1p CID Ile130Lys (domain or fragment)
chain: MQQDDDFQNFVATLESFKDLKSGISGSRIKKLTTYALDHIDIESKIISLIIDYSRLCPDSHKLGSLYIIDSIGRAYLDETRSNSNSSSNKPGTCAHAINTLGEVIQELLSDAIAKSNQDHKEKIRMLLDKWDRSGLFQKSYLNAIRSKCFAMD
- fold decrease in binding affinity against wild-type Nrd1p CID [10]: 20 fold
